Molecular target: human CD40 expressed on cells (human) (UniProt P25942)
Assay: cell-based or functional assay

Chain of human CD40 expressed on cells (human) (P25942 21-277): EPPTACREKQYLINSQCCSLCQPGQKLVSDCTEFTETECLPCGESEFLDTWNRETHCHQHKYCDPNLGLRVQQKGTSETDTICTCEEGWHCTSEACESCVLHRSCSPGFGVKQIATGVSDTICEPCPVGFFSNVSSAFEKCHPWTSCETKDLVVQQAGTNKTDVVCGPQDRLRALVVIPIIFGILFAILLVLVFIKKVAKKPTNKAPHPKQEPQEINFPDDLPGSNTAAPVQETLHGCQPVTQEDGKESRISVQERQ

- GFP positive rate for Jurkat/NF-kB-GFP+hCD40 single clones after CD40L stimulation (100 nM): 94.7%
Substance: CD40L (positive control, produced in 293F cells) (ligand)

Source: US20220324988A1
